Changes are numbered by the printed parent chain.
Experiments:
Trop-2 = target: T1, Trop-2 (human, UniProt P09758 27-323); assay: flow cytometry on A431 cells (MFI)
T1 construct: whole, on cells; also called Trop-2 on A431, HeLa, BxPC-3, SiHa and Capan-2 cells
T1 sequence (looked up): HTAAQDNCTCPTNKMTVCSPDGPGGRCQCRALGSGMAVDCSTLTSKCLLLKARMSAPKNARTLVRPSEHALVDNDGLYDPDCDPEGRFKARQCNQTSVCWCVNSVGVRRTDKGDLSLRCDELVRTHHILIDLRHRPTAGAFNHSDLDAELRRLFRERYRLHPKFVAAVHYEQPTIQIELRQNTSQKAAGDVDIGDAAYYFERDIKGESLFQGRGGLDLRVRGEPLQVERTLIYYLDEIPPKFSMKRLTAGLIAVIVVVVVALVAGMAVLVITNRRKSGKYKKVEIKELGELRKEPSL

human Dectin-1 isoform A = target: T2, human Dectin-1 isoform A (human, UniProt Q9BXN2 1-247); assay: flow cytometry on HEK Blue Dectin 1a cells (MFI)
T2 construct: also called hDectin-1a; Dectin-1 on HEK-Blue hDectin-1a cells
T2 sequence: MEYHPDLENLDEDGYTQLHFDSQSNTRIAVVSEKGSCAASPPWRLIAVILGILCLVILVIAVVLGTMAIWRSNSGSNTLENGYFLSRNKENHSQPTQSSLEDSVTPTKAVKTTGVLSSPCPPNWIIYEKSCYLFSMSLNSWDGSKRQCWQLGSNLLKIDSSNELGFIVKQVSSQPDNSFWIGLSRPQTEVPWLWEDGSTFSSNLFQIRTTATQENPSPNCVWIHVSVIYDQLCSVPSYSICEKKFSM

[1] = target: T3, human Dectin-1 (biosensor tests of Tables 3, 4A and 9; construct not stated) (human, UniProt Q9BXN2 66-247, limits assumed); assay: Octet
T3 construct: also called hDectin-1
T3 sequence (looked up): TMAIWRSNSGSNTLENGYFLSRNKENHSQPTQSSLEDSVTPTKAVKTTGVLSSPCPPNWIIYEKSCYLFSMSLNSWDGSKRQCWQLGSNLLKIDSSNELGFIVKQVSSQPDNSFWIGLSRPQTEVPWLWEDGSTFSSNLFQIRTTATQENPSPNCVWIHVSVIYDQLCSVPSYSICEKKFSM

[2] = target: T3, human Dectin-1 (biosensor tests of …); assay: Octet response; on X = 340: time not given here; on X = 470: time not given here
[3] = target: T3, human Dectin-1 (biosensor tests of …); assay: Octet, single point off rate fit
[4] = target: T3, human Dectin-1 (biosensor tests of …); assay: Fab K dis, run 1
[5] = target: T3, human Dectin-1 (biosensor tests of …); assay: Fab K dis, run 2
[6] = target: T3, human Dectin-1 (biosensor tests of …); assay: Fab K dis, run 3
[7] = target: T3, human Dectin-1 (biosensor tests of …); assay: Fab K dis, average of 3
[8] = target: T3, human Dectin-1 (biosensor tests of …); assay: Fab K dis, run 1; remark: listed apart in the source
[9] = target: T3, human Dectin-1 (biosensor tests of …); assay: Fab K dis, run 2; remark: listed apart in the source
[10] = target: T3, human Dectin-1 (biosensor tests of …); assay: Fab K dis, run 3; remark: listed apart in the source
[11] = target: T3, human Dectin-1 (biosensor tests of …); assay: Fab K dis, average of 3; remark: listed apart in the source
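Wherever delta is given: Single-point dissociation rate (koff) fit for each variant binding domain, expressed as change versus the parental clone.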

B1: 2M24.116/Trop2 bispecific antibody (bispecific antibody, V domains shown)
VH 1: QVQLVQSGAEVKKPGASVKVSCKASGYTFTDYYMHWVRQAPGQGLEWMGWINPNEGDTNYAQKFQERITMTRDTSISTAYMELSRLRSDDTAVYYCARNTGAYSFGYWGQGTLVTVSS
VL 1: DIQMTQSPSSVSASVGDRVTITCRASQGISSWLAWYQQKPGKAPKLLIYGASDLQSGVPSRFSGSGSGTDFTLTISSLQPEDFATYYCHQAYSFPFTFGPGTKVDIK
VH 2: QVQLQQSGSELKKPGASVKVSCKASGYTFTNYGMNWVKQAPGQGLKWMGWINTYTGEPTYTDDFKGRFAFSLDTSVSTAYLQISSLKADDTAVYFCARGGFGSSYWYFDVWGQGSLVTVSS
VL 2: DIQLTQSPSSLSASVGDRVSITCKASQDVSIAVAWYQQKPGKAPKLLIYSASYRYTGVPDRFSGSGSGTDFTLTISSLQPEDFAVYYCQQHYITPLTFGAGTKVEIK
notes: hIgG1
- EC50 (Trop-2): 8.35 nM
- EC50 (human Dectin-1 isoform A): 1.76 nM

B2: 2M24.119/Trop2 bispecific antibody (bispecific antibody, V domains shown)
VH 1: B1 VH 1 with Q65E, E66G
VL 1: B1 VL 1 with H89Q, S93G
VH 2: B1 VH 2
VL 2: B1 VL 2
notes: hIgG1
- EC50 (Trop-2): 7.87 nM
- EC50 (human Dectin-1 isoform A): 1.3 nM

B3: parental anti-Trop2 monospecific antibody (antibody, V domains shown)
VH: B1 VH 2
VL: B1 VL 2
- EC50 (Trop-2): 5.21 nM

B4: 2M24 monospecific antibody (Example 18) (antibody, V domains shown)
VH: B1 VH 1 with A24S, M34I, E55S, E66G, M81L, Y94F, T100S, A102S
VL: B1 VL 1 with Y49F, D53S, I75V, H89Q, K107E
notes: also called parental 2M24 antibody
- EC50 (human Dectin-1 isoform A): 0.343 nM

B5: 2M24.119 monospecific antibody (antibody, V domains shown)
VH: B1 VH 1 with Q65E, E66G
VL: B1 VL 1 with H89Q, S93G
- EC50 (human Dectin-1 isoform A): 0.393 nM

B6: 2M24.116 monospecific antibody (antibody, V domains shown)
VH: B1 VH 1
VL: B1 VL 1
- EC50 (human Dectin-1 isoform A): 0.37 nM

B7: 2M24A.1.14 hFab (Fab, V domains shown)
VH: B1 VH 1 with A24S, M34I, E55S, E66G, M81L, Y94F, T100S, A102S, Y103A
VL: B1 VL 1 with Y49F, D53S, I75V, H89Q, K107E
notes: Fab; also called 2M24.1.14
- delta [1]: 100%
- X = 340 [2]: 0.106
- X = 470 [2]: 0
- koff [3]: 0.313 s⁻¹

B8: 2M24A.1.15 (Fab, V domains shown)
VH: B1 VH 1 with A24S, M34I, E55S, E66G, M81L, Y94F, R98A, T100S, A102S
VL: B1 VL 1 with Y49F, D53S, I75V, H89Q, K107E
notes: Fab; also called 2M24.1.15
- delta [1]: 62%
- X = 290 [2]: 0.082
- X = 350 [2]: 0.0314
- koff [3]: 0.0239 s⁻¹

B9: 2M24A.1.23 (Fab, V domains shown)
VH: B1 VH 1 with A24S, M34I, E55S, E66G, M81L, Y94F, T100S, A102S
VL: B1 VL 1 with Y49F, D53S, I75V, H89A, K107E
notes: Fab; also called 2M24.1.23
- delta [1]: 18%
- X = 290 [2]: 0.128
- X = 350 [2]: 0.104

B10: 2M24A.1.24 (Fab, V domains shown)
VH: B1 VH 1 with A24S, M34I, E55S, E66G, M81L, Y94F, T100S, A102S
VL: B1 VL 1 with Y49F, D53S, I75V, H89Q, Q90A, K107E
notes: Fab; also called 2M24.1.24
- delta [1]: 36%
- X = 290 [2]: 0.115
- X = 350 [2]: 0.073

B11: 2M24A.1.25 (Fab, V domains shown)
VH: B1 VH 1 with A24S, M34I, E55S, E66G, M81L, Y94F, T100S, A102S
VL: B1 VL 1 with Y49F, D53S, I75V, H89Q, S93A, K107E
notes: Fab; also called 2M24.1.25
- delta [1]: 9%
- X = 340 [2]: 0.475
- X = 470 [2]: 0.432

B12: 2M24A.1.26 (Fab, V domains shown)
VH: B1 VH 1 with A24S, M34I, E55S, E66G, M81L, Y94F, T100S, A102S
VL: B1 VL 1 with Y49F, D53S, I75V, H89Q, F94A, K107E
notes: Fab; also called 2M24.1.26
- delta [1]: 92%
- X = 340 [2]: 0.231
- X = 470 [2]: 0.018

B13: 2M24A.1.27 (Fab, V domains shown)
VH: B1 VH 1 with A24S, M34I, E55S, E66G, M81L, Y94F, T100S, A102S
VL: B1 VL 1 with Y49F, D53S, I75V, H89Q, P95A, K107E
notes: Fab; also called 2M24.1.27
- delta [1]: 19%
- X = 340 [2]: 0.483
- X = 470 [2]: 0.393

B14: 2M24A.1.28 (Fab, V domains shown)
VH: B1 VH 1 with A24S, M34I, E55S, E66G, M81L, Y94F, T100S, A102S
VL: B1 VL 1 with Y49F, D53S, I75V, H89Q, F96A, K107E
notes: Fab; also called 2M24.1.28
- delta [1]: 90%
- X = 340 [2]: 0.309
- X = 470 [2]: 0.031

B15: 2M24A.1.29 (Fab, V domains shown)
VH: B1 VH 1 with A24S, M34I, E55S, E66G, M81L, Y94F, T100S, A102S
VL: B1 VL 1 with Y49F, D53S, I75V, H89Q, T97A, K107E
notes: Fab; also called 2M24.1.29
- delta [1]: 23%
- X = 340 [2]: 0.456
- X = 470 [2]: 0.35

B16: 2M24A.23 hFab H1 (Fab, V domains shown)
VH: B1 VH 1 with A24S, M34I, E55S, E66G, I68V, T100S, A102S
VL: B1 VL 1 with Y49F, D53S, I75V, H89Q, K107E
notes: Fab; also called 2M24.H1
- koff [4]: 0.00841 s⁻¹
- koff [5]: 0.00143 s⁻¹
- koff [6]: 0.00204 s⁻¹
- koff [7]: 0.00396 s⁻¹

B17: 2M24A.24 hFab H2 (Fab, V domains shown)
VH: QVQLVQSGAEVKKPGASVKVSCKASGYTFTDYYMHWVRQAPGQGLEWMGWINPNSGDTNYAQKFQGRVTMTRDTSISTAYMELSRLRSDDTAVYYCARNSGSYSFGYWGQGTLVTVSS
VL: B1 VL 1 with Y49F, D53S, I75V, H89Q, K107E
notes: Fab; also called 2M24.H2
- koff [4]: 0.00826 s⁻¹
- koff [5]: 0.000616 s⁻¹
- koff [6]: 0.0015 s⁻¹
- koff [7]: 0.00346 s⁻¹

B18: 2M24A.25 hFab H3 (Fab, V domains shown)
VH: B1 VH 1 with M34I, E55S, E66G, I68V, T100S, A102S
VL: B1 VL 1 with Y49F, D53S, I75V, H89Q, K107E
notes: Fab; also called 2M24.H3
- koff [4]: 0.00765 s⁻¹
- koff [5]: 0.00132 s⁻¹
- koff [6]: 0.00214 s⁻¹
- koff [7]: 0.0037 s⁻¹

B19: 2M24A.26 hFab H4 (Fab, V domains shown)
VH: B1 VH 1 with A24S, E55S, E66G, I68V, T100S, A102S
VL: B1 VL 1 with Y49F, D53S, I75V, H89Q, K107E
notes: Fab; also called 2M24.H4
- koff [4]: 0.0053 s⁻¹
- koff [5]: 0.00102 s⁻¹
- koff [6]: 0.0016 s⁻¹
- koff [7]: 0.00264 s⁻¹

B20: 2M24A.27 hFab H5 (Fab, V domains shown)
VH: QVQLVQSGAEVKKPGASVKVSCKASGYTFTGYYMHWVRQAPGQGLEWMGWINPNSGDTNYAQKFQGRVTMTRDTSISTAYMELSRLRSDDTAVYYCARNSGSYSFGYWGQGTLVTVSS
VL: B1 VL 1 with Y49F, D53S, I75V, H89Q, K107E
notes: Fab; also called 2M24.H5
- koff [4]: 0.00624 s⁻¹
- koff [5]: 0.00195 s⁻¹
- koff [6]: 0.0032 s⁻¹
- koff [7]: 0.0038 s⁻¹

B21: 2M24A.28 hFab H6 (Fab, V domains shown)
VH: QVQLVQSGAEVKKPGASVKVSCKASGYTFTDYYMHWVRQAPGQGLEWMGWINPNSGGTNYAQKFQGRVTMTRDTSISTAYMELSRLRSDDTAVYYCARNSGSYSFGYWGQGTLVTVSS
VL: B1 VL 1 with Y49F, D53S, I75V, H89Q, K107E
notes: Fab; also called 2M24.H6
- koff [4]: 0.00412 s⁻¹
- koff [5]: 0.000995 s⁻¹
- koff [6]: 0.00151 s⁻¹
- koff [7]: 0.00221 s⁻¹

B22: 2M24A.30 hFab L1 (Fab, V domains shown)
VH: B1 VH 1 with A24S, M34I, E55S, E66G, M81L, Y94F, T100S, A102S
VL: B1 VL 1 with Y49F, D53S, H89Q, K107E
notes: Fab; also called 2M24.L1
- koff [8]: 0.00631 s⁻¹
- koff [9]: 0.00208 s⁻¹
- koff [10]: 0.00213 s⁻¹
- koff [11]: 0.00351 s⁻¹

B23: 2M24A.31 hFab L2 (Fab, V domains shown)
VH: B1 VH 1 with A24S, M34I, E55S, E66G, M81L, Y94F, T100S, A102S
VL: B1 VL 1 with D53S, H89Q, K107E
notes: Fab; also called 2M24.L2
- koff [8]: 0.00635 s⁻¹
- koff [9]: 0.00236 s⁻¹
- koff [10]: 0.00239 s⁻¹
- koff [11]: 0.0037 s⁻¹

B24: 2M24A.32 hFab L3 (Fab, V domains shown)
VH: B1 VH 1 with A24S, M34I, E55S, E66G, M81L, Y94F, T100S, A102S
VL: B1 VL 1 with Y49F, G50A, D53S, H89Q, K107E
notes: Fab; also called 2M24.L3
- koff [8]: 0.00671 s⁻¹
- koff [9]: 0.00223 s⁻¹
- koff [10]: 0.00233 s⁻¹
- koff [11]: 0.00376 s⁻¹

B25: 2M24A.33 hFab L4 (Fab, V domains shown)
VH: B1 VH 1 with A24S, M34I, E55S, E66G, M81L, Y94F, T100S, A102S
VL: B1 VL 1 with G50A, D53S, H89Q, K107E
notes: Fab; also called 2M24.L4
- koff [8]: 0.00615 s⁻¹
- koff [9]: 0.00278 s⁻¹
- koff [10]: 0.00314 s⁻¹
- koff [11]: 0.00402 s⁻¹

Reference: patent publication US20250230247A1 (DREN BIO, published 2025)
